Laboratory results: the supplement of paper PMC9170038

Test system: MS2 coat protein
Assay: apparent KD of MS2 coat protein; higher = weaker reporter binding
Settings: Eterna round: R107; input ligand: arginine 13.2 mM
Experimental: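 RNA-MaP round R107: designed RNA switches with theophylline, tryptophan, arginine or FMN aptamers are transcribed on-chip within common flanks. They are titrated with SNAP-549-labelled MS2 coat protein in RNA-MaP buffer (100 mM Tris pH 7.5, 80 mM KCl, 4 mM MgCl2), without ligand or with the indicated ligand. Median apparent KD per design.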

Sequence	apparent KD of MS2 coat protein
UAAACUACACAUGAGGAUCACCCAUGUGGCCGAGGACCGGUACGGCCGCCACUCGUGUGUUAAUAAAAGAACCGCAAAGUUCUUU [Raesonisso]	0.0742 µM
GCAUCCUAGUCGGCCGCCACUGGUAUCAACACCUUCACCCGUGUGCACAUGAGGAUCACCCAUGUUAGGACCGGGACUAGGAUGC [SSTryp B #19]	0.00801 µM
ACGAUAGGACCUGAGGAACACCCAGGUGAUACCAGCCUGGAAACAGGCCCUUGGCAGCACCAAUACUCCAAUAACCUAUCGAAUA [TheoAX 12 #MicroSwitchBubble #AlternativeMS2]	0.141 µM
AAGACAUGAGGAUCACCCAUGUGUCAUGAAGGAGCGUCGGAAAUGACAGGUAGGUCGCAUGACCGUUGGCGCCGGAAACGGCGCA [SSAA #15]	0.0238 µM
CGGCCCUCACGUGAGGAUCACCCACGUGAUACCAGCCUGGAAACAGGCCCUUGGCAGCACUAGGUCAUCAAAGAUGACCAAGCCG [TheoAX 27 #OpenEnded #AlternativeMS2]	0.0118 µM
ACGAUAGCACAAGAGGAUCACCCUUGUGAUACCAGCCUGGAAACAGGCCCUUGGCAGCACACAAAUAAAUUGUAACUAUCGAAUA [TheoAX5 #MicroSwitchBubble #AlternativeMS2]	0.0225 µM
UAUAUAUAUCACUAACUGUUGUGGACGUCUCGAGGACCGGUACGGCCGCCACUCGGGCGGCCUCACAUGAGGAUCACCCAUGUCC [XTryp A #4]	0.0929 µM
GGCCCUGCGGGCGCCCGCAGGGCCGCGGAUACCAGCGAGGUCCAUCGCCCUUGGCAGCCGAACAUGAGGAUCACCCAUGUCGGUG [Same State - Theophylline A Attempt #8 (HarryS)]	0.0106 µM
UGUCGGCGUAAGUUGGCAUGUCUUGCUGGUCGAGGACCGGUACGGCCGCCACUCGAUCCUUCGCACAUGAGGAUCACCCAUGUUG [SS Tryp A #25]	0.0203 µM
GGAUGAAACUGAAGGAGCGAGAACACAAGAAUGGGUCAAACAUGAGGAUCACCCAUGUAAUCUCAGGUAGGUCGCAGUAUCCCUU [Exclusion Arginine B GF 10]	0.044 µM
AUUAAUAAUAUGUAGACGGCGGAGACGAGACGAGGACCGGUACGGCCGCCACUCGUGUUAGUUAACAUGAGGAUCACCCAUGUUA [#10 Tryptophan A Same State]	0.0112 µM
AAGGAAAAGGCGGCCGCCACUGGAAAGGCGAAAGCCAAGAAAACAUGAGGAUCACCCAUGUCAUGUAGGACCGGGCCAAAAGGAA	0.01 µM
CCUCAAUAGACGGCCGCCACUGAAUCAUGCGGAUACAUGAGGAUCACCCAUGUGGGUGUGGUACGCAGGACCGGGUCAAGACCCG [#13 Same State - Tryptophan B]	0.278 µM
UGAUGGUACGGAAGGAGCGUGUAAGAACAAGAACAUGAGGAUCACCCAUGUAUUAAUUUAACACAGGUAGGUCGCCGUGUUAUUG [11.H]	0.0319 µM
AGGACGGUCGGAAGGAGCGGUACAUGAGGAUCACCCAUGUACUUCUGGGCAUCCGUAGAGUGCCAGGUAGGUCGCCGAUUGCGGG [XArg-B10]	0.0164 µM
UGUAUGUGAUCUGAUACCAGCUAAUAAGCUUGAGGAUCACCCAAGUGGAGCGGAAACGCAAGCCCUUGGCAGCAGAUCGCAUACU [Denovo 4 #StaticStem #AlternativeMS2]	0.0609 µM
GGACCAUGGAGCGAUACCAGCUUGAGUGUGCUGGCCAGGCACAUGAGGAUCACCCAUGUAAGCCCUUGGCAGCGCUCCAUGGUCC [#1 Exclusion - Theophylline B Attempt #26 (HarryS)]	0.00745 µM
AUCGCACCUGGUGAUACCAGCGUUUGCUCGCGACAUGAGGAUCACCCAUGUGGCCAGUGAUGCCCUUGGCAGCAUGGGCGGUGCA [Same State - Theophylline B (Freestyle 28)]	0.111 µM
CAAUCAAUCAAUCAAUCAAUCAACCAUGAAGGAGCGUGGGAAACCACAGGUAGGUCGCAUGGAAAACAUGAGGAUCACCCAUGUA [Casablanca]	0.0221 µM

Sequence	apparent KD of MS2 coat protein
GGUCUCUGGAGCGAUACCAGCUUAAUUGUACUGGCCAGGUACAUGAGGAUCACCCAUGUAAGCCCUUGGCAGCGCUCCAGAGACC [#1 Exclusion - Theophylline B Attempt #12 (HarryS)]	0.0106 µM
CUACAUUUGUAGAAACCGGUCACCAUUAUUCGAGGACCGGUACGGCCGCCACUCGUAUCAUGUGAUACAUGAGGAUCACCCAUGU [Tryptophan A 9]	0.0273 µM
AUAAGUGUAAGAUACCGCACGCUGGAGGAAGGAGCGCGGAUUAACGCAGGUAGGUCGCCUCGUACAUGAGGAUCACCCAUGUGGC [#14 Same State - Arginine A]	0.0417 µM
AUGCCUAGUGGAAGGAGCGAGGGUCUUCCCAACAUGAGGAUCACCCAUGUUCUUUUACACCCUCAGGUAGGUCGCCAUUGGGACA [Tilexete]	0.0417 µM
AGAGUCAGACAAAAGUCUGGCUCAACCGAAGGAGCGUCCGAAAGGACAGGUAGGUCGCGGUUACCUGAGGAUCACCCGGGUUCCU [ArgAS 9 #OpenEnded #AlternativeMS2]	0.1 µM
GAUAGAACAAAAGUUUUAUCAGUGGGUGAACGAGGACCGGUACGGCCGCCACUCGGACAUGAGGAUCACCCAUGUCCAUGUGAAA [AstrosExyTryA#17]	0.0126 µM
AAUGAGUGGUGGUCAAGUGAUCCUCAUGAACGAGGACCGGUACGGCCGCCACUCGAUAACAUGAGGAUCACCCAUGUAAUAAUAA [|T'-M'-Trp-Ms2|_Design8]	0.0156 µM
GGUGAUCCGUGCUGCCGGAUCAUCGGUGAUACCAGCAUCGAAAGAUGCCCUUGGCAGCACCAACAUGAGGAUCACCCAUGUAAUA [(M)'-(T)'-(M)''-(T1)-(T2)-(M1)-(M2)_Design5]	0.046 µM
GAUAUGGAAACAUGUCAGAUCCUUACCGGUCGAGGACCGGUACGGCCGCCACUCGAAAAUAAUAAACAUGAGGAUCACCCAUGUA [Ex Tryptophan A 16]	0.017 µM
CAUGAGAGAUUGUUUUGUGACUCUAACGAUACCAGAGUAGGACUUCUCCCUUGGCAGCGUGUGACAUGAGGAUCACCCAUGUCCA [theeternabot_exclusion_MS2_Theo_A_5]	0.0118 µM
AGCCCUGUACUAGAUACCAGCUACAUGAGGAUCACCCAUGUGCGUCAAGACUGACUGUGUAGCCCUUGGCAGCUGCUCGCAUGUA [Exclusion - Theophylline B (Freestyle 2)]	0.0197 µM
UUAGAUAUGACGGAUACCAGCGUGUUGUAGAACAUGAGGAUCACCCAUGUAGUGAUCGAGCGCCCUUGGCAGCUGGUAUGUUUGG [7.T]	0.175 µM
ACAUGAGGAUCACCCAUGUUGCUGACAGAAGGAGCGUGAUUAAGCACAGGUAGGUCGCUGUUGGUAUCGAGCGUUAGCUCGAUAC [SSArg A #8]	0.0346 µM
GGAUAGGACAGAAGGAGCGACAUGGCGACGAAAGUCGGACCUUCACAUGAGGAUCACCCAUGUCAGGUAGGUCGCUGUCCUAUCG [ArgXB 6 #MS2Gate #StaticStem]	0.038 µM
CUGACAUGAGGAUCACCCAUGUACACUGAAGGAGCGUCGAGAAUGACAGGUAGGUCGCAGAAUAAUAAUGGUGAUGUUUAGGUAA [Exclusion Arginine A GF 2]	0.024 µM
UGUAUGGACUGAAGGAGCGGAAGAUAACCUGAGGAUCACCCGGGUAAUAAGGCGAAAGCCUUCCAGGUAGGUCGCAGUCCAUACU	0.23 µM
CCGUCCCUCGGAAGGAGCGGCGCAAUGUAAGGGACCUUUUAUACAUGAGGAUCACCCAUGUGCCAGGUAGGUCGCCGAGAGCGUG [Erxeatge]	0.0795 µM
UAAUGCAUGACGGCCGCCACUAGAACAUGAGGAUCACCCAUGUACGGCGGCCGUCAUGGGUGGACUAGGACCGGGUCAUGCAUAU [(Trp1)-(Ms2)-(T)'-(M)'-(Trp2)_Design5]	0.0082 µM
AAUAACAUGAGGAUCACCCAUGUAAAAGAUACCAGGGUGAUGAUCCUCCCUUGGCAGCUUACAGCUGAUCAAUAAGAUCGGCUGA [TheoAS #Tail #MS2BeforeAptamer #BothOrNeither]	0.0875 µM

Same assay, conditions: Eterna round: R107; input ligand: none

Sequence	apparent KD of MS2 coat protein
ACGAUAGGACCUGAGGAACACCCAGGUGAUACCAGCCUGGAAACAGGCCCUUGGCAGCACCAAUACUCCAAUAACCUAUCGAAUA [TheoAX 12 #MicroSwitchBubble #AlternativeMS2]	0.547 µM
AAGACAUGAGGAUCACCCAUGUGUCAUGAAGGAGCGUCGGAAAUGACAGGUAGGUCGCAUGACCGUUGGCGCCGGAAACGGCGCA [SSAA #15]	0.0305 µM
